Residues, ends and D or L forms follow the SMILES beside them.
T1: IKKα(10-667) EE homodimer (Homo sapiens, UniProt O15111, S176E/S180E)
T1 construct: an equivalent construct of the IKKα homodimer (i.e. IKKα(10-667) S176E/S180E, named IKKα(10-667) EE hereafter); 6×His (followed by TEV site) (N, cleaved yes); made in house; host or cells: Sf21 insect cells (baculovirus)
T1 sequence (O15111 10-667 S176E/S180E): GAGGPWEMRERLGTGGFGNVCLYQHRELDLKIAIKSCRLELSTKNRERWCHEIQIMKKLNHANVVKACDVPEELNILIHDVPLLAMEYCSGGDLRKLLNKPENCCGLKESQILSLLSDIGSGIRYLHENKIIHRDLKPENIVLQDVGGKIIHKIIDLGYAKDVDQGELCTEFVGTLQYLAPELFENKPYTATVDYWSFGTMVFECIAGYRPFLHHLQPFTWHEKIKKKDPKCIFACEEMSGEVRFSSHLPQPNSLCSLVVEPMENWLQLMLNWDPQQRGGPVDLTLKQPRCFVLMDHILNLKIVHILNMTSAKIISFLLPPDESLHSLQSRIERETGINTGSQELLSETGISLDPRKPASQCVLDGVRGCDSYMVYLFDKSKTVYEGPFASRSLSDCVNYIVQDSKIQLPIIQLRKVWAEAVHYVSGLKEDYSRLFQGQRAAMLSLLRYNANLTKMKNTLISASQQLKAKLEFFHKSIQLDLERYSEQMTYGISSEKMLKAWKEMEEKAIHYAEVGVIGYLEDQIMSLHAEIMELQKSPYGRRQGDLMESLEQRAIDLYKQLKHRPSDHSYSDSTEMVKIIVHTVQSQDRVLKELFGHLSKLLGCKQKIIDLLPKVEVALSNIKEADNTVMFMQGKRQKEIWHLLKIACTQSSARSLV

T2: IKKα(10-667) S176E/S180E homodimer, 6×His tag removed (human, UniProt O15111 10-667)
T2 construct: also called purified IKKα
T2 sequence (looked up): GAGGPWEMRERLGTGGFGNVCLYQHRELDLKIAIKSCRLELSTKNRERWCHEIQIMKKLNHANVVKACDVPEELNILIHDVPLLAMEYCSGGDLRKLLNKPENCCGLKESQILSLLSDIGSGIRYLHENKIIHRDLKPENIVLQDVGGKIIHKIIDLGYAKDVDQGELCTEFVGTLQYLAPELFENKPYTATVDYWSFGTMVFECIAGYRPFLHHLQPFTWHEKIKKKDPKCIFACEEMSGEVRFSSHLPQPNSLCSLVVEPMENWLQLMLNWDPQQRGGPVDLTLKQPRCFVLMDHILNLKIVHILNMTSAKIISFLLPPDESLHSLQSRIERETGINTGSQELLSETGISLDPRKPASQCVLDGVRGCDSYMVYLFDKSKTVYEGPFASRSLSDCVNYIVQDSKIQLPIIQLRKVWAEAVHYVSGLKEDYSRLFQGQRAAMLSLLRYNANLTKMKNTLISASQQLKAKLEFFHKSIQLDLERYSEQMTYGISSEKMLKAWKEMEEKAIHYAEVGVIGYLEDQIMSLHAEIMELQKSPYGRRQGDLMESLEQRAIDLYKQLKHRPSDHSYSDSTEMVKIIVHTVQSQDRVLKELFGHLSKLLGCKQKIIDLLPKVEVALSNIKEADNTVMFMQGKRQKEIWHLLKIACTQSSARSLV

T3: IKKβ(1-669) S177E/S181E homodimer, 6×His tag removed (human, UniProt O14920 1-669)
T3 sequence (looked up): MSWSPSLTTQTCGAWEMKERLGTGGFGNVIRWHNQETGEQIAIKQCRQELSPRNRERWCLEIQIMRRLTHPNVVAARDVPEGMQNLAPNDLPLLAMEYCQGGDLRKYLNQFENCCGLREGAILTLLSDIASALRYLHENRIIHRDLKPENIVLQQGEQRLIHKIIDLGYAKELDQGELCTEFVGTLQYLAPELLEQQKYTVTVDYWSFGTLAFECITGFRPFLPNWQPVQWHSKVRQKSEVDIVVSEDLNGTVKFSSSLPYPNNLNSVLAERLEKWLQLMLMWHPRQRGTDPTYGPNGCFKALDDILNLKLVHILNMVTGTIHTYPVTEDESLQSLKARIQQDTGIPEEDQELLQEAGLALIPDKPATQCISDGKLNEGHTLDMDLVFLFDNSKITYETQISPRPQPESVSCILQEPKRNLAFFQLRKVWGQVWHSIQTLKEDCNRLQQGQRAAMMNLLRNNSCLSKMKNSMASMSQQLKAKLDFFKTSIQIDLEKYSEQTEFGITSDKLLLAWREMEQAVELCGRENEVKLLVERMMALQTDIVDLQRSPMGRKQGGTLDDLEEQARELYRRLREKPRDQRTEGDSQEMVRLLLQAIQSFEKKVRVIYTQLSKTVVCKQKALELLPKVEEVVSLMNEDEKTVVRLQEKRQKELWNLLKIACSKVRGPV


Legend:
[1] = biological target: T1, IKKα(10-667) EE homodimer; test: Isothermal titration calorimetry (ITC) of peptide binding to IKKα homodimer; settings: 25° C.; for N (binding stoichiometry of IKKα: pep): 1:1 binding model; for TΔS / ΔG / ΔH: IKKα
Method: All experiments were performed in ITC buffer (20 mM HEPES pH 8.0, 150 mM NaCl, 1 mM TCEP) unless otherwise stated. Purified IKKα(10-667) EE and IKKβ(1-669) EE protein samples were dialyzed overnight against ITC buffer at 4° C. Just before the ITC experiments, IKKα or IKKβ samples were concentrated, incubated at room temperature for 30 minutes and centrifuged at 11000 g to remove eventual precipitate. The final concentrations of IKKα and IKKβ in the sample cell varied between 22 and 50 μM depending on the measurement. HPLC purified synthetic peptides (IκBα pep) comprising residues 297-317 of IκBα were further desalted using a Nap5 (GE Healthcare, #17-0853-01) column equilibrated in milliQ water, lyophilized and then resuspended in ITC buffer. The concentration of peptides in the syringe varied between 220 and 975 μM depending on the measurement.
All ITC measurements were performed using a PEAQ-ITC MALVERN instrument. The titration parameters were set as following: temperature 25° C., reference power 10 μcal/s, feedback=high, stirring speed 750 RPM, initial delay 60 s, first injection 0.4 μl in 0.8 s and the remaining 19 injections were 2 μL in 4 s with 120 s of spacing. The data were fitted to a 1:1 binding model. All data were processed using NITPIC software and global fitting of two datasets was carried out using SEDPHAD.
To evaluate binding affinities, isothermal titration calorimetry (ITC) experiments were performed using a synthetic peptide that comprises the YDDφXφ motif plus the N-terminal acidic patch (residues 297-317, named IκBα pep hereafter) and purified IKKβ(1-669) EE homodimer or an equivalent construct of the IKKα homodimer (i.e. IKKα(10-667) S176E/S180E, named IKKα(10-667) EE hereafter). […] ITC analyses on the IKKα/β heterodimer were prevented by strong aggregation propensity at the concentrations required for these experiments.
All ITC experiments were performed at 25° C. The data were fitted to a 1:1 binding model. N refers to the binding stoichiometry of IKKα/β: pep, meaning that approximately half of total IKKα/β concentration binds pep ligand in agreement with the dimer form of IKKα/β being binding competent. The values for the IKKα interaction with IRF7 pep should be regarded as estimates due to low affinity and weakly exothermic binding, and therefore high experimental error and fitting uncertainty. All data were processed using NITPIC software and global fitting of two datasets was carried out using SEDPHAD.

[2] = biological target: T2, IKKα(10-667) S176E/S180E homodimer, …; test: ITC, 25 °C, synthetic peptide into IKK homodimer, 1:1 model
Method: (§1) All experiments were performed in ITC buffer (20 mM HEPES pH 8.0, 150 mM NaCl, 1 mM TCEP) unless otherwise stated. […] Just before the ITC experiments, IKKα or IKKβ samples were concentrated, incubated at room temperature for 30 minutes and centrifuged at 11000 g to remove eventual precipitate. The final concentrations of IKKα and IKKβ in the sample cell varied between 22 and 50 μM depending on the measurement. […] The concentration of peptides in the syringe varied between 220 and 975 μM depending on the measurement.
(§2) All ITC experiments were performed at 25° C. The data were fitted to a 1:1 binding model. […] All data were processed using NITPIC software and global fitting of two datasets was carried out using SEDPHAD.

[3] = biological target: T3, IKKβ(1-669) S177E/S181E homodimer, …; test: as above
Method: as §1, §2

Row | N (binding stoichiometry of IKKα: pep) [1] | TΔS [1] [kcal/mol] | ΔG [1] [kcal/mol] | ΔH [1] [kcal/mol] | Kd [2] [µM] | N (binding stoichiometry) [2] | TΔS [2] [kcal/mol] | ΔG [2] [kcal/mol] | ΔH [2] [kcal/mol] | N (binding stoichiometry) [3] | TΔS [3] [kcal/mol] | ΔG [3] [kcal/mol] | ΔH [3] [kcal/mol] | Molecule
1 | 0.60 | -5.56 | -6.77 | -12.3 |  |  |  |  |  |  |  |  |  | CC[C@H](C)[C@H](NC(=O)CNC(=O)[C@H](CC(=O)O)NC(=O)[C@H](CC(C)C)NC(=O)CN)C(=O)N[C@H](C(=O)N[C@@H](CCC(=O)O)C(=O)N[C@@H](Cc1ccc(O)cc1)C(=O)N[C@@H](CC(=O)O)C(=O)N[C@@H](CC(=O)O)C(=O)N[C@@H](Cc1ccccc1)C(=O)N[C@@H](CCCCN)C(=O)N[C@@H](CC(C)C)C(=O)N[C@@H](CC(N)=O)C(=O)N[C@@H](CO)C(=O)N[C@@H](CO)C(=O)N[C@H](C(=O)N[C@H](C(=O)N[C@@H](CCC(=O)O)C(=O)N1CCC[C@H]1C(=O)N[C@@H](CCCCN)C(=O)N[C@@H](CCC(=O)O)C(=O)O)C(C)C)[C@@H](C)CC)[C@@H](C)CC [p100 pep] (H-GLDGIIEYDDFKLNSSIVEPKE-OH; N-terminus and C-terminus assumed)
2 | 0.6 | -1.2 | -5.5 | -6.7 |  |  |  |  |  |  |  |  |  | CC[C@H](C)[C@H](NC(=O)[C@H](CC(=O)O)NC(=O)[C@H](CC(=O)O)NC(=O)[C@H](Cc1ccc(O)cc1)NC(=O)[C@H](CC(C)C)NC(=O)[C@H](CO)NC(=O)[C@H](CC(N)=O)NC(=O)[C@H](C)NC(=O)[C@H](CO)NC(=O)[C@H](CO)NC(=O)[C@@H](N)CC(C)C)C(=O)N[C@@H](CCC(=O)O)C(=O)N[C@@H](CS)C(=O)N[C@@H](Cc1ccccc1)C(=O)N[C@@H](CC(C)C)C(=O)N[C@@H](CCSC)C(=O)N[C@@H](CCC(=O)O)C(=O)N[C@@H](CC(C)C)C(=O)N[C@@H](CCC(=O)O)C(=O)N[C@@H](CCC(N)=O)C(=O)N1CCC[C@H]1C(=O)N[C@@H](C)C(=O)O [IRF7 pep] (H-LSSANSLYDDIECFLMELEQPA-OH; N-terminus and C-terminus assumed)
3 |  |  |  |  | 11 | 0.6 | -5.56 | -6.77 | -12.3 |  |  |  |  | GLDGIIEYDDFKLNSSIVEPKE [synthetic p100 pep]
4 |  |  |  |  |  | 0.62 | -8.35 | -6.88 | -15.2 | 0.58 | -9.78 | -6 | -15.8 | EFTEDELPYDDCVFGGQRLTL (HPLC purified synthetic peptide; also called IkBα pep wt; P1) [synthetic IκBα pep wt (residues 297-317 of IκBα)]

From patent US20260265321A1, “PEPTIDE AND POLYPEPTIDE INHIBITING THE NF-KB SIGNALING PATHWAY” (Centre National de la Recherche Scientifique, priority 2023, published 2026)
